Experimental data published in the supplement of paper PMC12042874.
± gives the uncertainty stated by the source.

Test: amyloid nucleation score (Sup35N fusion, yeast selection) (log enrichment); library NNK2; higher = more nucleation; inactive = no reads after selection
Procedure, shortened: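 Three technical output replicates were used for random libraries. Psi-negative yeast expressing peptides of 20 random codons fused to Sup35N were induced with 100 μM copper sulfate for 24 hours and grown 7 days at 30°C on medium lacking adenine and uracil, and input and output plasmid inserts were Illumina-sequenced, excluding sequences with under 100 input reads. The nucleation score is the DiMSum log enrichment of output over input reads, centred on the mode score of non-aggregating sequences.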

First: KRRKSSTTVSKVGTGLEWMG
Second: CTCLWNDMRRGP
The amyloid nucleation score of the first is lower: 0.874 ± 0.15 for the first, 1.99 ± 0.25 for the second.

Going from LKIQEPNRYW to LWFLS, the amyloid nucleation score rises from -0.945 ± 0.76 to 0.393 ± 0.33.

Going from FYATYSSLRLGVVTIIPPGL to GSQVYPPPPMADM, the amyloid nucleation score falls from 4.49 ± 0.087 to 0.426 ± 0.3.

WFIASLLYISLWFYICSTMS and TMFEGFRCLRR are within error of each other in amyloid nucleation score: 0.878 ± 0.24 for the first, 0.923 ± 0.81 for the second.

Compared with ILSRTKVFYNSSCETDVMWL, YCFFKVKTDLKTMCELGSTA is lower in amyloid nucleation score: 4.17 ± 0.085 for the first, -0.122 ± 0.55 for the second.

Going from LYTRMPMYGHSEKFLVCESS to TSSFEARRRGWLTDEGVLFY, the amyloid nucleation score rises from -0.486 ± 0.27 to 0.784 ± 0.54.

First: AFVCMRVVLICKIRLNFVRA
Second: AKGLG
The amyloid nucleation score of the first is lower: -0.519 ± 0.5 for the first, 1.52 ± 0.31 for the second.

First: MKTSLYRRGNPRLYREKSRK
Second: KDHSMSELYGGICVRCYKLI
The amyloid nucleation score of the first is higher: 1.01 ± 0.27 for the first, -0.378 ± 1 for the second.

Going from NLNIFGLAMLCNRRGAYMRK to ARWLSSAYSMIYEFSLLKSW, the amyloid nucleation score falls from 6.829 ± 0.039 to 0.706 ± 0.74.

Compared with MAKIFFPNRQVIPPTRMQRV, SHEGGD is lower in amyloid nucleation score: 1.12 ± 0.47 for the first, -0.856 ± 0.34 for the second.

First: GTNKAYFNASFMD
Second: WKMWRVKAVNR
The amyloid nucleation score of the first is lower: -0.875 ± 0.44 for the first, 0.935 ± 0.35 for the second.

RKNSWDISHPAGTCNIRFIL and VLDYSTHIEFGQRRVVGFAR are within error of each other in amyloid nucleation score: 0.339 ± 0.61 for the first, -0.321 ± 1 for the second.

Compared with LTIRGKVTSTVAMLLDFLDS, VEFNNAFNNCSLLFSDPRSS is lower in amyloid nucleation score: 5.86 ± 0.062 for the first, 3.34 ± 0.12 for the second.

First: IPEVESIGMGWGWREISGEC
Second: WSYHF
The amyloid nucleation score of the first is higher: 1.42 ± 0.41 for the first, -0.305 ± 0.8 for the second.

Going from LSASW to YNLESLNFMLCSLRTQGKFR, the amyloid nucleation score falls from 1.44 ± 0.38 to 0.149 ± 0.25.

NSRISKNNLSRSLT and DGSHLSKTDVK are within error of each other in amyloid nucleation score: -0.196 ± 0.56 for the first, 0.113 ± 0.2 for the second.

First: IIGDTICVVIIKWNLKNYRS
Second: AMFSEVYASHQVVPYPLSLS
The amyloid nucleation score of the first is higher: 3.67 ± 0.075 for the first, 0.746 ± 0.62 for the second.

Going from SESWSSCIMA to WGNVLNLYNR, the amyloid nucleation score rises from 1.33 ± 0.39 to 4.53 ± 0.081.

First: LGWASYVYGCGRRGGSCRGW
Second: GMWFLRLSSFTCI
The amyloid nucleation score of the first is lower: 1.87 ± 0.12 for the first, 5.722 ± 0.049 for the second.

MFSESE and WPYGVGLINGWSTMVSYKVL are within error of each other in amyloid nucleation score: -0.275 ± 0.35 for the first, 0.325 ± 0.8 for the second.

VTALDLMNGIWSRNMPGEVV and NIQPEK are within error of each other in amyloid nucleation score: -0.18 ± 0.19 for the first, -0.587 ± 0.39 for the second.

Compared with VWFMEVNVKYECTPSYEGRL, SVFIGVVPNESQCYV is lower in amyloid nucleation score: 3.81 ± 0.073 for the first, 0.069 ± 0.39 for the second.

Going from VHDFTRNRKWWDNLWSDRSM to DYQGGCSILTSEDEPYEVAC, the amyloid nucleation score rises from 0.399 ± 0.47 to 1.56 ± 0.44.

First: RFPLGCKMSVTGPFHMTHHA
Second: LFWELEM
The amyloid nucleation score of the first is lower: 1.29 ± 0.38 for the first, 4.7 ± 0.091 for the second.

Going from KAIDLRVPSMYYRPWVV to HCLEMGCGLYNAR, the amyloid nucleation score rises from -0.58 ± 0.76 to 9.476 ± 0.071.

FQIREVGEVLNC and WTTRFSCITTFLRQCPYM are within error of each other in amyloid nucleation score: -0.202 ± 1.1 for the first, 0.148 ± 0.79 for the second.

RILFWSYA and QLGRVSHRVTDRIFWKAYPA are within error of each other in amyloid nucleation score: -0.407 ± 0.48 for the first, 0.353 ± 0.35 for the second.

GKPCH and LFNSAVLK are within error of each other in amyloid nucleation score: 0.52 ± 0.33 for the first, -0.092 ± 0.33 for the second.

EFWVLNYVITNLHWQTYSIM and ILLNGRSFLRS are within error of each other in amyloid nucleation score: -1.29 ± 1 for the first, 0.174 ± 1 for the second.

First: TVYNDNFVCRILNLDITILF
Second: NTGVIYDAT
The amyloid nucleation score of the first is higher: 6.957 ± 0.053 for the first, -0.307 ± 0.63 for the second.

HYYWSALSSAFVNSMIVR and PWLDIFNVACTSRGSLVWYE are within error of each other in amyloid nucleation score: -1.09 ± 0.76 for the first, -0.855 ± 1.1 for the second.

VDWRNFIGLLNLTDCSDRYH and IYKSRRVRHVLDVVL are within error of each other in amyloid nucleation score: -0.744 ± 0.34 for the first, -0.241 ± 0.56 for the second.

Compared with KLIYSSYVGSFLMELRWVCD, VADHVCFVCRHTLDP is lower in amyloid nucleation score: 1.74 ± 0.17 for the first, -0.317 ± 0.62 for the second.

CLLHMWIGLSSKVGGVRDA and NLQSTMMLYYCFRVMMLLAW are within error of each other in amyloid nucleation score: -0.781 ± 0.79 for the first, -0.762 ± 0.38 for the second.

First: VCVIISLHRV
Second: PSWHI
The amyloid nucleation score of the first is higher: 4.99 ± 0.058 for the first, -0.193 ± 0.47 for the second.

KASLGLFYTWVQLSLHISCG and CVMSFYPELIILASSFCVPF are within error of each other in amyloid nucleation score: -0.488 ± 1 for the first, -1.22 ± 0.36 for the second.

RYPFFEMVRSTMQSMIENQ and KDLRWVLRWC are within error of each other in amyloid nucleation score: 0.612 ± 0.3 for the first, 0.912 ± 0.26 for the second.

Going from RSCMASEYGT to VPRFVCTHVDLIFGGNGCTF, the amyloid nucleation score rises from -0.971 ± 0.64 to 4.91 ± 0.075.

Substance IRSGIIPVTVGPYHGALYMV has an amyloid nucleation score of 0.662 ± 0.74.

For NASYRCNM, the amyloid nucleation score was “inactive”.
With DYFAIRWGQVT the amyloid nucleation score was “inactive”.
In the case of GLSGKCLYFISVWYTKFLIS, the amyloid nucleation score is reported as “inactive”.
For FNYGCFVLDSDHVAGKGILI, the amyloid nucleation score was “inactive”.
With FTNFNDYLFWNYMNWTGYML the amyloid nucleation score was “inactive”.
In the case of YISFSDEVFV, the amyloid nucleation score is reported as “inactive”.
For DSFFAEMDNLNSGRTPFKGT, the amyloid nucleation score was “inactive”.
For SRLAY, the amyloid nucleation score was “inactive”.
For GIMYGEFMPLR, the amyloid nucleation score was “inactive”.
With NFTIHTWVYMHRVNPPGILN the amyloid nucleation score was “inactive”.
